Consider three molecules from patent USRE43497 (FRAUNHOFER GESELLSCHAFT ZUR FORDERUNG DER ANGEWANDTEN …, dated 2012).

For experiment [1], the target named is T1, Recombinant human MIF (macrophage migration inhibitory factor) (human, UniProt P14174 2-115).
T1 construct: Used soluble (1 uM in TNT lysates); also called rMIF; rwtMIF
As to the kind of experiment: assay not described.

Experiment [2] concerns the target T2, biotin-labelled Jab1 (in vitro translated) (human, UniProt Q92905 2-334, biotin-labelled during in vitro translation (Transcend non-radioactive translation detection system); positions not stated).
T2 construct: also called biotin-Jab1; biotin-labelled p38^Jab1
In words: competition with wildtype MIF for biotin-Jab1 in TNT reticulocyte lysate.

T2 sequence (Q92905 2-334 limits assumed): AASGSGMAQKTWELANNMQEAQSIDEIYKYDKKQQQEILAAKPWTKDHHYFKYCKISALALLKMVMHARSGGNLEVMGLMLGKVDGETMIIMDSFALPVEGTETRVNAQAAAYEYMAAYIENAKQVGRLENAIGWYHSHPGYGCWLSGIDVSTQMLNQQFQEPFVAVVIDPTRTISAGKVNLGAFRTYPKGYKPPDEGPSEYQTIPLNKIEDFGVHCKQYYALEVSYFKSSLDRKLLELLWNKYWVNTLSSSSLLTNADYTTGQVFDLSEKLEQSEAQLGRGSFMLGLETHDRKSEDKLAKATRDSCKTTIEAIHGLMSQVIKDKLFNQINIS
T1 sequence (P14174 2-115 limits assumed): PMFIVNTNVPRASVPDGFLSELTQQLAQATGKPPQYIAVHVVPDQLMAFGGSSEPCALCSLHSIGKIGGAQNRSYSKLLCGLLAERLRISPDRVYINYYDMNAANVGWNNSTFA

B1: p27^Kip1 (other, UniProt P46414 1-197, looked up)
chain: MSNVRVSNGSPSLERMDARQAEHPKPSACRNLFGPVNHEELTRDLEKHCRDMEEASQRKWNFDFQNHKPLEGRYEWQEVERGSLPEFYYRPPRPPKSACKVLAQESQDVSGSRQAVPLIGSQANSEDRHLVDQMPDSSDNPAGLAEQCPGMRKRPAAEDSSSQNKRANRTEENVSDGSPNAGTVEQTPKKPGLRRQT
Regarding B1, the binding result in experiment [1] is “no binding”.

B2: Ser^57 Ser^60 MIF (50-65) peptide (peptide)
peptide: FGGSSEPSALSSLHSI
notes: also called analogue of the MIF (50-65) peptide with the two Cys residues substituted for Ser
With B2, in experiment [2], the binding result is on record as “binds”.

B3: MIF (50-65) peptide (peptide)
peptide: FGGSSEPCALCSLHSI
notes: 16 residues, positions 50-65 of wildtype MIF; also called MIF peptide (50-65); Cys60-spanning 16 residue MIF peptide
As for B3, in experiment [2], the binding result is reported as “binds”.
